Results taken from paper PMC2889767.

Molecular target: T1, Rfx3 (in vitro translated) (UniProt P48381 1-749)
T1 sequence: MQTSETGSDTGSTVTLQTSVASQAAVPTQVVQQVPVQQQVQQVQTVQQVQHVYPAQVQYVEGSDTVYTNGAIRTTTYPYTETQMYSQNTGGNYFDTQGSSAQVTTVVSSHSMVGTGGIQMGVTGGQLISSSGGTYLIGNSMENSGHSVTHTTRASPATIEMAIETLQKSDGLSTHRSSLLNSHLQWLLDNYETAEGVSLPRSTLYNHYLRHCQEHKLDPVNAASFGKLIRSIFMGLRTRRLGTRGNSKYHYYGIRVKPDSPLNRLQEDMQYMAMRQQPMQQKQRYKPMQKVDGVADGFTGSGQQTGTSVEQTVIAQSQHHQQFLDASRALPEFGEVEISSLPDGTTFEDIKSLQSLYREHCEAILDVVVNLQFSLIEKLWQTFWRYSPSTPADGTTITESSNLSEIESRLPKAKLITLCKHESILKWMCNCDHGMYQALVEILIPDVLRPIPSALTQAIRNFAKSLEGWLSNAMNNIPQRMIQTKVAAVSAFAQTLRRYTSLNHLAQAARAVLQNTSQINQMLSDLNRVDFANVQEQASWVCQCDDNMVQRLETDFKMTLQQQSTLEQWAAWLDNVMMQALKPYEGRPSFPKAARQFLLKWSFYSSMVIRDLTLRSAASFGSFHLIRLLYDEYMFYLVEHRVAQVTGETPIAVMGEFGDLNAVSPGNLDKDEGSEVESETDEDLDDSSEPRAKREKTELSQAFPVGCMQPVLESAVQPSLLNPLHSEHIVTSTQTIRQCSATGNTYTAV
Experiment: EMSA

B1: Pal-2 wild type (dsDNA)
DNA 1: GGCAATGGTCACCATAGAAACCACAG
DNA 2: GGCTGTGGTTTCTATGGTGACCATTG
Q: Does B1 bind?
A: Result: binds

B2: Pal-1 wild type (dsDNA)
DNA 1: GGGAGTGGTCACCATGGTGACAGGAG
DNA 2: GGCTCCTGTCACCATGGTGACCACTC
Q: Does B2 bind?
A: Result: binds
